Data: the supplement of paper PMC10567573

B1: PLAGL1 (parent)
chain: CKDFLCQFCAQRFGRKDHLTRHTK
B2: FCHO1 (parent)
chain: DKLALCHLELTRKLQDLIKDVLRY

Variants of: B1
Test: protein stability index of a GFP-peptide fusion (GPS, HEK-293T) (PSI 1-6); higher = more stable
Conditions: c terminus: a fixed tail appended
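Further: lentivirally expressed fusions sorted by FACS into six bins by GFP to DsRed ratio, PSI derived from sequencing read proportions per bin multiplied by bin number.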

Protein stability index, by site and new letter:
Q7: V 2.02; D 2.2; R 2.08; H 1.96; C 1.52; A 2.38; E 2.25; N 1.74; F 1.74
R21: M 1.97; G 2.02; K 2.27; D 2.37; T 1.77; I 1.82; C 2.01
T20: R 1.93; W 1.47; F 1.83; M 2.66; V 2.28; P 1.82; N 2.01; C 3.02; L 2.22; A 2.25; K 2.35
H18: K 2.25; W 1.94; Q 1.96; V 2.59; I 2.07; M 1.64
F8: R 3.32; D 3.12; I 1.93; Q 2.51; S 2.19; K 2.69
C6: R 1.41; I 1.62; T 2.04; M 1.48; V 1.89; H 2.25; K 1.4; G 1.84
A10: H 1.9; C 2.19; S 2.24; N 1.96; K 2.48; E 1.69; Q 1.44; L 1.79; I 1.83; W 1.67
D3: C 1.31; F 3.19; E 1.78; P 1.73; T 1.77; K 1.48; Q 2.76; V 2.38
K24: L 1.49; A 2.73; G 1.74; M 1.74; W 2.03; S 2.02; V 1.67; R 2.08; D 1.73
F4: Y 1.36; Q 2.34; C 1.97; K 2.41; I 1.54
H22: G 2.56; C 2.4; W 2.52; A 2.03; S 2.04; L 1.85; V 2.81; R 2.15
R15: L 2.06; P 1.66; Q 1.74; V 2.3; W 1.61; D 2.24; M 1.73; F 1.79; C 1.82
L5: M 1.9; W 1.93; N 2.23; G 2.23; Q 2.01; S 2.41; P 2.87; H 1.89
D17: T 2.44; L 2.03; E 2.14; P 2.4; V 1.64; M 1.3; K 1.94
K2: G 2.43; W 1.7; Q 2.08; D 2.02; L 1.85; C 2.44; P 2.52; A 1.7
C9: W 2; G 2.14; V 2.46; R 1.45; L 2.22; I 2.56
C1: N 1.72; D 2.31; Y 2.44; R 2.04; P 2.2; G 1.93; H 2.02; W 1.84; T 1.76
F13: V 2.03; W 2.33; N 2.35; P 2.35; M 2.88; D 2.65; A 1.91; T 2.23; K 3.02
R12: H 2.38; A 1.97; L 1.47; P 1.81; C 2.86; K 3.04; M 1.94; Q 1.23; G 2.54
T23: N 1.81; D 2.81; F 2.23; W 1.51; M 2.04; V 1.87; R 1.95; E 1.68; Q 3.45; S 2.38; L 1.62; K 2.44
Q11: C 1.85; R 2.3; G 2.44; K 2.02; L 2.29; T 1.75; N 2.01; E 2.14; Y 1.51
G14: F 1.79; M 2.59; D 2.14; P 2.46; E 2.78; R 2.12; A 2.63; H 2.13; V 1.99; K 2
L19: Y 1.9; K 3.13; I 2.32; Q 2.48; G 2.73; T 3.32; E 1.99; N 1.91; P 2.02; R 2.39
K16: I 2.37; Y 1.86; W 2.33; A 2.67; G 2.15; D 2.35; F 2.17; E 1.93; C 2.53; R 2.44; L 2.49; Q 2.62

Variants of: B2
Test: as above
Conditions: c terminus: a fixed tail appended

Protein stability index of substitutions, site by site:
Y24: S 1.04; N 2.43; G 2.98; K 2.3; C 2.92; P 1.99; E 3.6; T 2.26
R23: I 1.47; L 2.59; P 1.2; D 2.08; A 3.49; C 3.57; Q 3.15
K19: Q 1.36; G 2.29; H 2.18; C 2.7; N 2.69; P 2.36; D 1.78; E 2.16; R 2.22; F 1.66; I 2.33; S 1.71; A 1.17; M 2.52; Y 2.43
L17: G 3.64; A 1.42; P 3.05; Y 3.59; F 2.42; E 2.04; S 2.04; K 2.77; H 2.06; V 2.4; I 2.89; R 2.12; T 2.71; Q 1.35; N 2.13; W 4.39; D 2.06
V21: P 2.13; H 3.97; S 1.83; G 2.84; I 2.97; T 2.53; R 2; E 2.24; Y 2.3; F 2.25; N 2.02; D 1.43
Q15: W 2.34; I 3.87; N 2.84; T 2.05; P 1.36; R 2.88; V 1.95; D 2.48; S 4.09; C 2.26; Y 2.79; A 2.11; L 3.4
L14: R 2.6; Y 1.49; Q 2.14; N 2.33; P 2.99; M 4.05; W 1.53; S 2.13
D16: S 2.2; C 3.11; P 2.15; N 3.32; F 2.36; W 2.1; V 2.92; Y 2.42; M 2.46; I 2.67
L22: Q 2.92; G 1.68; M 2.35; E 2.67; P 3.16; T 1.05; S 2.44; N 1.47; D 2.32; A 2.73; K 1.65
D20: I 2.16; N 4.79; W 2.4; V 2.67; F 1.87; P 2.52; M 1.9; L 2.19; Y 2.3; G 3.57; K 1.71; C 1.11
I18: T 2.02; S 2.6; D 2.98; Q 1.73; G 2.33; A 2.71; P 2.11; Y 2.52; H 2.12; E 3.6; R 2.76; F 3.1; N 2.4; M 2.05; K 3.16; C 2.17
